Source: patent US10279022B2, “Peptides and combination of peptides for use in immunotherapy against various cancers” (immatics biotechnologies GmbH, priority 2015, dated 2019)

Tests used:
HLA-A*24 = assay: MHC binding assay by UV-ligand exchange and beta2m ELISA (HLA-A*24); set-up: species or system human; conditions: peptide exchange yield, binding to HLA-A*24; UV-ligand exchange, beta2m ELISA
Excerpt: (§1) Candidate peptides for T cell based therapies according to the present invention were further tested for their MHC binding capacity (affinity). The individual peptide-MHC complexes were produced by UV-ligand exchange, where a UV-sensitive peptide is cleaved upon UV-irradiation, and exchanged with the peptide of interest as analyzed. Only peptide candidates that can effectively bind and stabilize the peptide-receptive MHC molecules prevent dissociation of the MHC complexes. To determine the yield of the exchange reaction, an ELISA was performed based on the detection of the light chain (β2m) of stabilized MHC complexes. The assay was performed as generally described in Rodenko et al. (Rodenko et al., 2006).
(§2) 96 well MAXISorp plates (NUNC) were coated over night with 2 ug/ml streptavidin in PBS at room temperature, washed 4× and blocked for 1 h at 37° C. in 2% BSA containing blocking buffer. Refolded HLA-A*02:01/MLA-001 monomers served as standards, covering the range of 15-500 ng/ml. Peptide-MHC monomers of the UV-exchange reaction were diluted 100 fold in blocking buffer. Samples were incubated for 1 h at 37° C., washed four times, incubated with 2 ug/ml HRP conjugated anti-β2m for 1 h at 37° C., washed again and detected with TMB solution that is stopped with […]. Absorption was measured at 450 nm. Candidate peptides that show a high exchange yield (preferably higher than 50%, most preferred higher than 75%) are generally preferred for a generation and production of antibodies or fragments thereof, and/or T cell receptors or fragments thereof, as they show sufficient avidity to the MHC molecules and prevent dissociation of the MHC complexes.

CD8+ T cells = assay: In vitro T-cell priming assay (aAPCs loaded with peptide/MHC and anti-CD28), pMHC multimer readout; format: cell-based, human; conditions: for Wells positive [%]: in vitro immunogenicity of HLA class I peptides, peptide specific pMHC multimer staining after three stimulation cycles
Excerpt: In order to obtain information regarding the immunogenicity of the TUMAPs of the present invention, the inventors performed investigations using an in vitro T-cell priming assay based on repeated stimulations of CD8+ T cells with artificial antigen presenting cells (aAPCs) loaded with peptide/MHC complexes and anti-CD28 antibody.
In order to perform in vitro stimulations by artificial antigen presenting cells loaded with peptide-MHC complex (pMHC) and anti-CD28 antibody, the inventors first isolated CD8+ T cells from fresh HLA-A*02 leukapheresis products via positive selection using CD8 microbeads (Miltenyi Biotec, Bergisch-Gladbach, Germany) of healthy donors obtained from the University clinics Mannheim, Germany, after informed consent.
PBMCs and isolated CD8+ lymphocytes were incubated in T-cell medium (TCM) until use consisting of RPMI-Glutamax (Invitrogen, Karlsruhe, Germany) supplemented with 10% heat inactivated human AB serum (PAN-Biotech, Aidenbach, Germany), 100 U/ml Penicillin/100 μg/ml Streptomycin (Cambrex, Cologne, Germany), 1 mM sodium pyruvate (CC Pro, Oberdorla, Germany), 20 μg/ml Gentamycin (Cambrex). 2.5 ng/ml IL7 (PromoCell, Heidelberg, Germany) and 10 U/ml IL-2 (Novartis Pharma, Nurnberg, Germany) were also added to the TCM at this step.
Generation of pMHC/anti-CD28 coated beads, T-cell stimulations and readout was performed in a highly defined in vitro system using four different pMHC molecules per stimulation condition and 8 different pMHC molecules per readout condition.
The purified co-stimulatory mouse IgG2a anti human CD28 Ab 9.3 (Jung et al., 1987) was chemically biotinylated using Sulfo-N-hydroxysuccinimidobiotin as recommended by the manufacturer (Perbio, Bonn, Germany). Beads used were 5.6 μm diameter streptavidin coated polystyrene particles (Bangs Laboratories, Illinois, USA).
pMHC used for positive and negative control stimulations were A*0201/MLA-001 (peptide […] (SEQ ID NO. 303) from modified Melan-A/MART-1) and A*0201/DDX5-001 ([…] from DDX5, SEQ ID NO. 304), respectively.
800.000 beads/200 μl were coated in 96-well plates in the presence of 4×12.5 ng different biotin-pMHC, washed and 600 ng biotin anti-CD28 were added subsequently in a volume of 200 μl. Stimulations were initiated in 96-well plates by co-incubating 1×10^6 CD8+ T cells with 2×10^5 washed coated beads in 200 μl TCM supplemented with 5 ng/ml IL-12 (PromoCell) for 3 days at 37° C. Half of the medium was then exchanged by fresh TCM supplemented with 80 U/ml IL-2 and incubating was continued for 4 days at 37° C. This stimulation cycle was performed for a total of three times. For the pMHC multimer readout using 8 different pMHC molecules per condition, a two-dimensional combinatorial coding approach was used as previously described (Andersen et al., 2012) with minor modifications encompassing coupling to 5 different fluorochromes. Finally, multimeric analyses were performed by staining the cells with Live/dead near IR dye (Invitrogen, Karlsruhe, Germany), CD8-FITC antibody clone SK1 (BD, Heidelberg, Germany) and fluorescent pMHC multimers. For analysis, a BD LSRII SORP cytometer equipped with appropriate lasers and filters was used. Peptide specific cells were calculated as percentage of total CD8+ cells. Evaluation of multimeric analysis was done using the FlowJo software (Tree Star, Oregon, USA). In vitro priming of specific multimer+CD8+ lymphocytes was detected by comparing to negative control stimulations.

HLA-A*02 = HLA-A*02 (Homo sapiens, UniProt P04439, D140Y/D185E/D98H/E176V/E277Q/G131W/G231S/I119V/I121R/I166T/I218V/L300P/N151K/N90K/P208A/P217A/Q86G/Q94H/R138H/R169H); assay: MHC binding assay by UV-ligand exchange and beta2m ELISA (HLA-A*02); conditions: peptide exchange yield, binding to HLA-A*02; UV-ligand exchange, beta2m ELISA
Excerpt: as §1, §2

| Substance | Peptide exchange (HLA-A*02) | Wells positive [%] (CD8+ T cells) | also measured |
| --- | --- | --- | --- |
| 204 (TYELRYFQI; listed as Homo sapiens) [compound 204] |  | + (<20% = +) | Peptide exchange (HLA-A*24): ++++ (> = 75% = ++++) |
| 14 (ILAKDLFEI; listed as Homo sapiens) [compound 14] | ++++ (> = 75% = ++++) |  |  |
| 51 (LLFSRLCGA; listed as Homo sapiens) [compound 51] | ++++ (> = 75% = ++++) |  |  |
| 167 (NYINRILKL; listed as Homo sapiens) [compound 167] |  | + (<20% = +) | Peptide exchange (HLA-A*24): ++++ (> = 75% = ++++) |
| 165 (DYTTWTALL; listed as Homo sapiens) [compound 165] |  | + (<20% = +) | Peptide exchange (HLA-A*24): ++++ (> = 75% = ++++) |
| 245 (SLLDLPLSL; listed as Homo sapiens) [compound 245] | ++++ (> = 75% = ++++) |  |  |
| 16 (YTLDIPVLFGV; listed as Homo sapiens) [compound 16] | ++++ (> = 75% = ++++) |  |  |
| 12 (GLLPLLHRA; listed as Homo sapiens) [compound 12] | ++++ (> = 75% = ++++) | ++++ (> = 70% = ++++) |  |
| 34 (FLLATEVVTV; listed as Homo sapiens) [compound 34] | ++++ (> = 75% = ++++) |  |  |
| 159 (LYNKGFIYL; listed as Homo sapiens) [compound 159] |  | ++++ (> = 70% = ++++) | Peptide exchange (HLA-A*24): ++++ (> = 75% = ++++) |
| 3 (KLEENGDLYL; listed as Homo sapiens) [compound 3] | ++++ (> = 75% = ++++) |  |  |
| 163 (DYLKGLASF; listed as Homo sapiens) [compound 163] |  | + (<20% = +) | Peptide exchange (HLA-A*24): ++++ (> = 75% = ++++) |
| 126 (QMFQYFITV; listed as Homo sapiens) [compound 126] | ++++ (> = 75% = ++++) |  |  |
| 158 (HYSQELSLLYL; listed as Homo sapiens) [compound 158] |  | + (<20% = +) | Peptide exchange (HLA-A*24): ++++ (> = 75% = ++++) |
| 207 (AYVVFVSTL; listed as Homo sapiens) [compound 207] |  | + (<20% = +) |  |
| 229 (AILAHLNTV; listed as Homo sapiens) [compound 229] | ++++ (> = 75% = ++++) |  |  |
| 35 (FLLPFSTVYL; listed as Homo sapiens) [compound 35] |  | + (<20% = +) |  |
| 1 (LLYPEPWSV; listed as Homo sapiens) [compound 1] | ++++ (> = 75% = ++++) |  |  |
| 196 (LYIDRPLPYL; listed as Homo sapiens) [compound 196] |  | ++++ (> = 70% = ++++) |  |
| 29 (YLLDPSITL; listed as Homo sapiens) [compound 29] |  | + (<20% = +) |  |
| 84 (ALCPRIHEV; listed as Homo sapiens) [compound 84] | ++++ (> = 75% = ++++) |  |  |
| 293 (FLVDGSWSI; listed as Homo sapiens) [compound 293] |  |  | in vitro immunogenicity: Wells (CD8+ T cells; positive wells, HLA-A*02 and HLA-A*24 peptides, healthy donors): + (<20% = +) |
| 133 (ALLPRLHQL; listed as Homo sapiens) [compound 133] | ++++ (> = 75% = ++++) |  |  |

Continued, in another order:

| Peptide exchange (HLA-A*02) | Substance | Wells positive [%] (CD8+ T cells) | also measured |
| --- | --- | --- | --- |
| ++++ (> = 75% = ++++) | 147 (YLMDDTVEI; listed as Homo sapiens) [compound 147] |  |  |
| ++++ (> = 75% = ++++) | 258 (LLSERFINV; listed as Homo sapiens) [compound 258] |  |  |
| ++++ (> = 75% = ++++) | 153 (FISERVEVV; listed as Homo sapiens) [compound 153] |  |  |
| ++++ (> = 75% = ++++) | 92 (GLLFSLRSV; listed as Homo sapiens) [compound 92] |  |  |
| ++++ (> = 75% = ++++) | 129 (RLQDILWFL; listed as Homo sapiens) [compound 129] |  |  |
| ++++ (> = 75% = ++++) | 248 (YLDRFLAGV; listed as Homo sapiens) [compound 248] |  |  |
| ++++ (> = 75% = ++++) | 257 (GLYTDPCGV; listed as Homo sapiens) [compound 257] |  |  |
| ++++ (> = 75% = ++++) | 95 (GLLGSLFFL; listed as Homo sapiens) [compound 95] |  |  |
| ++++ (> = 75% = ++++) | 4 (KLMPGTYTL; listed as Homo sapiens) [compound 4] | + (<20% = +) |  |
| ++++ (> = 75% = ++++) | 249 (GLCERLVSL; listed as Homo sapiens) [compound 249] | + (<20% = +) |  |
| ++++ (> = 75% = ++++) | 125 (SLADYEHFV; listed as Homo sapiens) [compound 125] |  |  |
| ++++ (> = 75% = ++++) | 112 (SLGKFTFDV; listed as Homo sapiens) [compound 112] |  |  |
